Reference: patent US20240301362A1

The substances below were run against CD46 (UniProt P15529) (assay: Kd determination, method not stated (column head 'Kd (Oleks)')).
UniProt P15529, sequence (P15529 35-343): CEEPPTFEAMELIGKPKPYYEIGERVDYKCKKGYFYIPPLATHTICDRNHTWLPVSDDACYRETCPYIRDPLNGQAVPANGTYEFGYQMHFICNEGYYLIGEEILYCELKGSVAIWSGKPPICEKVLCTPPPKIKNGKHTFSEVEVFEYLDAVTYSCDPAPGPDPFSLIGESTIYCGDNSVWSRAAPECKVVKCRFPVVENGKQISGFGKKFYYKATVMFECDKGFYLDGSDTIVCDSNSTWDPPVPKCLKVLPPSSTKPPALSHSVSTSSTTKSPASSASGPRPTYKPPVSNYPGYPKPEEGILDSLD

Row | Substance | Kd [nM]
1 | Ad11 knob (from UniProt P35774 123-325) | 11.2
2 | Mutated Ad35 Knob A8: Ile192Val Ile256Val (from UniProt Q92854) | 13.7
3 | wtAd35(207Asp) knob | 15
